Data on 2 molecules can be found in patent publication US20120258041A1 (published 2012).

One assay has as its target human iC3b (human) (UniProt P01024). Kind of assay: sandwich ELISA: chicken anti-C3 capture antibody, captured antigen, A209 as detecting antibody, goat anti-mouse-HRP, ABTS.
The target of the next assay is T1, murine iC3b (mouse, UniProt P01027 25-1663, limits assumed).
T1 construct: Native material from a mixture of two mouse sera; the capture antibody also takes C3b and C3c; also called mouse iC3b
The experiment in a line: sandwich ELISA: rat mAb 2/11 (anti-mouse C3b/iC3b/C3c) capture, mouse serum 1:25 as antigen source, biotinylated antibody, streptavidin-HRP, ABTS, read at 405 nm.

T1 sequence (P01027 25-1663 limits assumed): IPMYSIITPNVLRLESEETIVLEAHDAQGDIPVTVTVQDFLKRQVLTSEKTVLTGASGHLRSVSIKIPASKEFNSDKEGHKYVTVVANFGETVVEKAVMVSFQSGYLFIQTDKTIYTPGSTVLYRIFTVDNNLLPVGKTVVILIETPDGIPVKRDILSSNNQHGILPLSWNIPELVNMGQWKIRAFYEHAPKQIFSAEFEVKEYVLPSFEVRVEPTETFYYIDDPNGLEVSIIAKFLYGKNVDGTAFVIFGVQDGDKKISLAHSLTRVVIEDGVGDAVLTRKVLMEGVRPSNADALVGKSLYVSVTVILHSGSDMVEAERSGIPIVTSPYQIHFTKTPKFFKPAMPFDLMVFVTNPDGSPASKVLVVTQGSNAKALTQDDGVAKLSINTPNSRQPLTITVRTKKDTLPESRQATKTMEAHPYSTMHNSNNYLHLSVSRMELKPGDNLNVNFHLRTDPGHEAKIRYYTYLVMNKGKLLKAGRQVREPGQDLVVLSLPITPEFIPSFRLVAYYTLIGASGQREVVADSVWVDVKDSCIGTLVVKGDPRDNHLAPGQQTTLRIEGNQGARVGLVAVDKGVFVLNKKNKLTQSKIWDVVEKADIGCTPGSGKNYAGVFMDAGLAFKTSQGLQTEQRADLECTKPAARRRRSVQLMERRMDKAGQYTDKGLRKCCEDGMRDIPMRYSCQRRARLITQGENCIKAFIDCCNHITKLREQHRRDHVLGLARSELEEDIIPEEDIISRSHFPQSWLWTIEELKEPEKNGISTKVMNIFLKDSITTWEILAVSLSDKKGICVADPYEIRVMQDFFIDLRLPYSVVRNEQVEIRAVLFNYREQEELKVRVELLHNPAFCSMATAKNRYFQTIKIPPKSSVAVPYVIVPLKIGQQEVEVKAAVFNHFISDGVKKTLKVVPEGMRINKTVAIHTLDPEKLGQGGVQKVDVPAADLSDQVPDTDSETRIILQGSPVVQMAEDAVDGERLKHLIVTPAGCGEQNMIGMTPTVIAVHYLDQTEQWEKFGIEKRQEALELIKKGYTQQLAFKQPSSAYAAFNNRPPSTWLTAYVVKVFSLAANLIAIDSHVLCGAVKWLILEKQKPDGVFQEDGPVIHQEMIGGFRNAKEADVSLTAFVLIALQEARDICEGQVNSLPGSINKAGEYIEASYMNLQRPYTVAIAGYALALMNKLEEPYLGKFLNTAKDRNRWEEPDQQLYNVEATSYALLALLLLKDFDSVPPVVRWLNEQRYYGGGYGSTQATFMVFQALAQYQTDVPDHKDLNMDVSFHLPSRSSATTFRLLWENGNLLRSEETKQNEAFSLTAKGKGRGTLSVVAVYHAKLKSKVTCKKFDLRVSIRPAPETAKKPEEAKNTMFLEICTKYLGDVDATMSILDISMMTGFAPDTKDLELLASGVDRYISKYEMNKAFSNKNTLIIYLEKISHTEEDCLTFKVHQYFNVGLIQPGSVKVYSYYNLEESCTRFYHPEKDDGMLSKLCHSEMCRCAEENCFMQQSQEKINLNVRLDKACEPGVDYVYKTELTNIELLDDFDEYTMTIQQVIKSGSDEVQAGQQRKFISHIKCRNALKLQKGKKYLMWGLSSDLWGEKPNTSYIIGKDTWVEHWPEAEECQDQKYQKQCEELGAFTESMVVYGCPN
Sequence of human iC3b (human) (P01024 23-667 limits assumed, chain 1 of 3): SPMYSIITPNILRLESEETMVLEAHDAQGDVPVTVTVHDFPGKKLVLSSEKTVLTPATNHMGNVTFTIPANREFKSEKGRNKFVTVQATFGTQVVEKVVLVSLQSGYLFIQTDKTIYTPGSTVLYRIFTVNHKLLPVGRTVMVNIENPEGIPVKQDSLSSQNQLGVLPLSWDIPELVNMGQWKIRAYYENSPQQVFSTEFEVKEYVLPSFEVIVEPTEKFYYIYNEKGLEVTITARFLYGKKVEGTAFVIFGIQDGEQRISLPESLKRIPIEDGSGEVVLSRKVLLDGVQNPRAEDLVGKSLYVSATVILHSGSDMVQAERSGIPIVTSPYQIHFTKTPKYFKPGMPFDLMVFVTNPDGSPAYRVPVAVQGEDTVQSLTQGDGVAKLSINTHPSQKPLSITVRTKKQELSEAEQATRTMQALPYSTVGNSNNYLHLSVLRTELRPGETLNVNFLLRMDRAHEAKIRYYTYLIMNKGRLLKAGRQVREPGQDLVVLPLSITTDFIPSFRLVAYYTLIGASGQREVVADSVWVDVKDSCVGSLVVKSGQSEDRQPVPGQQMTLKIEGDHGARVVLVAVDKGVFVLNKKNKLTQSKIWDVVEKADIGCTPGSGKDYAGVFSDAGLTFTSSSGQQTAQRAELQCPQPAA
Sequence of human iC3b (human) (P01024 749-1303 limits assumed, chain 2 of 3): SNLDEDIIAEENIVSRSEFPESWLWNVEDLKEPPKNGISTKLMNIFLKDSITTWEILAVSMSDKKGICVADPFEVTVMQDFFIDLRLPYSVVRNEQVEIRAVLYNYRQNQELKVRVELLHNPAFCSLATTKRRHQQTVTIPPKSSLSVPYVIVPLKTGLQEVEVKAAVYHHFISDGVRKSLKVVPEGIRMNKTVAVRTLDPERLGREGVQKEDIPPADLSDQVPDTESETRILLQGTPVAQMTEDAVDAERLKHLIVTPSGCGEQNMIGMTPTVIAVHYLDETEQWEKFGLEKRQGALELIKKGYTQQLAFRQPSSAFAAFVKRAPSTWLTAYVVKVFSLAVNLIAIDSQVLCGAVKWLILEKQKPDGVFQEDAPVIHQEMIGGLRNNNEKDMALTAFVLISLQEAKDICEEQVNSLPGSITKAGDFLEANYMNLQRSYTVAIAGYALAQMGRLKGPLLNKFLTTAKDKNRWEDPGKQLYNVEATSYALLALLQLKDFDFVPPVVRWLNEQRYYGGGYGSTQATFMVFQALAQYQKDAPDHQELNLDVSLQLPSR
Sequence of human iC3b (human) (P01024 1321-1663 limits assumed, chain 3 of 3): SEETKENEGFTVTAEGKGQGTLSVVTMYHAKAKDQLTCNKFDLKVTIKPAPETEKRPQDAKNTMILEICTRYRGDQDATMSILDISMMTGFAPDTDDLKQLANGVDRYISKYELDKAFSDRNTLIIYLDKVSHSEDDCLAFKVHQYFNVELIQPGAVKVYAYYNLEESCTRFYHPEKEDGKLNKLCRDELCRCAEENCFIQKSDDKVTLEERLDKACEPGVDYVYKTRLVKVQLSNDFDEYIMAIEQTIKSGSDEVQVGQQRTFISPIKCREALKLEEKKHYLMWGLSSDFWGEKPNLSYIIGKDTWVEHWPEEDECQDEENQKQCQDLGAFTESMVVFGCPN

As for “A209 antibody (Quidel), mouse anti-human iC3b monoclonal antibody”, the EC50 (read off the curve) with human iC3b (human) stood at 0.03 µg/mL.

B1: mouse monoclonal antibody 5D2 (antibody, V domains shown)
VH: EVQLQQSGPELVKPGASVKISCKASGYTFTDNYYMNWVKQSHGKSLEWIGHIYPNNGVTSYNQKFRGKATLTVDKSSNSAYMELRSLTSEDSALYYCARNKLLSLYWYFDVWGTGTSVTVSS
VL: DIQMTQSSSSFSVFLGDRITITCRASVDIYNRLAWFQQKPGNAPRLLISGATSLATGVPSRFSGSGSGKDYTLSITSLQTEDVTIYYCQQYWSTPWTFGGGTKLEIKR
In the case of B1, the “EC50 (read off the curve)” value with murine iC3b is about 20 nM.
